Measurements reported in patent US20060141582A1 (ZymoGenetics, published 2006).

T1: human IL-22RA on transfected cells (BaF3/IL-22RA/IL-20RB, BaF3/IL-22RA/CRF2-4, 293 or P815 cells) (human, UniProt Q8N6P7 16-574)
T1 construct: also called huIL-22RA; hIL-22RA
T1 sequence: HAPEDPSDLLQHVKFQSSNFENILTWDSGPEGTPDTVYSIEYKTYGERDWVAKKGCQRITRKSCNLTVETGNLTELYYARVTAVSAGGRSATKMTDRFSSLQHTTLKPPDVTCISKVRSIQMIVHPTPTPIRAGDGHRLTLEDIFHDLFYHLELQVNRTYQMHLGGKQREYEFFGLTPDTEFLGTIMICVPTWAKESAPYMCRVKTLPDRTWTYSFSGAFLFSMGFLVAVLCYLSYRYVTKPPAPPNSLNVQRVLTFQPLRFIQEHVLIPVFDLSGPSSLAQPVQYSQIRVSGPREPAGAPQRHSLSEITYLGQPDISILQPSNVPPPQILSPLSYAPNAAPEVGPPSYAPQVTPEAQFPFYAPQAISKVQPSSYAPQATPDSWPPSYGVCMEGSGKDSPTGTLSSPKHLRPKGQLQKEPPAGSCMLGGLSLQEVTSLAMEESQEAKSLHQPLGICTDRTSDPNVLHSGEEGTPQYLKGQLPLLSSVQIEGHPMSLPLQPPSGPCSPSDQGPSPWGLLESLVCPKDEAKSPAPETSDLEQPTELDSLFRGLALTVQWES

B1: biotinylated human IL-22 (ligand)
chain: APISSHCRLDKSNFQQPYITNRTFMLAKEASLADNNTDVRLIGEKLFHGVSMSERCYLMKQVLNFTLEEVLFPQSDRFQPYMQEVVPFLARLSNRLSTCHIEGDDLHIQRNVQKLKDTVKKLGESGEIKAIGELDLLFMSLRNACI
modifications: biotinylated (sites not given)
notes: also called huIL-22-biotin

How the values were obtained:
[1] = target: CRF2-4/IL-22RA heterodimeric receptor on BaF3 cells (BaF3/CRF2-4/IL-22RA cells) (human) (UniProt Q08334); test: cell-based or functional assay
[2] = target: T1, human IL-22RA on transfected cells …; test: flow cytometry on P815 cells transfected with hIL-22RA, 5 ug/ml huIL-22-biotin; used to select the clone
Description: WT P815 Cells (ATCC No. TIB-64) were transfected with a plasmid vector containing the hIL-22RA cDNA sequence (e.g., SEQ ID NO:1) and a selectable puromycin-resistance marker, using Fugene Reagent according to the manufacturer's protocol (Roche, Indianapolis, Ind.). Cells were placed under Puromycin selection 48 hours following transfection. Puromycin-resistant transfectants were cloned by limiting dilution, and screened for their level of hIL-22RA cell surface expression by flow cytometry, using biotinylated human IL-22 (huIL-22-biotin). Briefly, cells were incubated with 5 ug/ml huIL-22-biotin for 30 minutes on ice and then washed. Binding of huIL-22-biotin to the cells was then detected using PE-labeled streptavidin at 1:500. Cells were analyzed on a Facscan flow cytometer using Cellquest software. (Becton Dickinson, San Jose, Calif.).

CRF2-4/IL-22RA heterodimeric receptor on BaF3 cells (BaF3/CRF2-4/IL-22RA cells) (human), sequence (Q08334 20-325 limits assumed, one chain of several): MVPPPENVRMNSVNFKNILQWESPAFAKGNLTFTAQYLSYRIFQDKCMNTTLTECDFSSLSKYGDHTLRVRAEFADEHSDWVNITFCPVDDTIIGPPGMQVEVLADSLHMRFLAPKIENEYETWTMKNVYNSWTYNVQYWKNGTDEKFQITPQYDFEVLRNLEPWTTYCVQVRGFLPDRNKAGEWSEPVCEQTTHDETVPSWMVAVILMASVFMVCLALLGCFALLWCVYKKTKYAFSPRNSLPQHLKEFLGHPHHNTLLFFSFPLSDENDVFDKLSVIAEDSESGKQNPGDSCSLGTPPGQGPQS

| proliferation of BaF3/CRF2-4/IL-22RA cells (Alamar Blue), fold induction at 0.06 ng/ml IL-22-CEE (fold induction) [1] | proliferation of BaF3/CRF2-4/IL-22RA cells (Alamar Blue), fold over background at 50 ng/ml IL-22-CEE (fold over background) [1] | binding result [2] | Molecule |
| --- | --- | --- | --- |
| 2 | 15 | – | IL-22-CEE (IL-22 polypeptide containing C-terminal GluGlu (EE) tag), purified from BHK 570 cells (ligand) |
| – | – | binds | B1 |
